Measured values from US20240294593A1 (Genentech, published 2024).
Substitutions are numbered along the chain they refer to. Names and notes keep the numbering of the source.

B1: H1_L1.24 (antibody, V domains shown)
VH: EVQLVESGGGLVQPGGSLRLSCAASGFTFSSFGMHWVRQAPGKGLEWVSYISSGSSIIYYADSVKGRFTISRDNAKNSLYLQMNSLRAEDTAVYYCARGGRLVWSPDYWGQGTLVTVSS
VL: DIVMTQSPDSLAVSLGERATINCKSSQSLLNSGHQKNYLTWYQQKPGQPPKLLIYWASTRESGVPDRFTGSGSGTDFTLTISSLQAEDVAVYYCQNDYSYPFTFGSGTKLEIKR
notes: also called VL-N34H; Kabat 28
B2: H1_L1.25 (antibody, V domains shown)
VH: B1 VH
VL: B1 VL with H34E
notes: also called VL-N34E; Kabat 28
B3: H1_L1.26 (antibody, V domains shown)
VH: B1 VH
VL: B1 VL with H34S
notes: also called VL-N34S; Kabat 28
B4: H1_L1.27 (antibody, V domains shown)
VH: B1 VH
VL: B1 VL with H34R
notes: also called VL-N34R; Kabat 28
B5: H1_L1.28 (antibody, V domains shown)
VH: B1 VH
VL: B1 VL with H34L
notes: also called VL-N34L; Kabat 28
B6: H1_L1.29 (antibody, V domains shown)
VH: B1 VH
VL: B1 VL with H34T
notes: also called VL-N34T; Kabat 28
B7: H1_L1.30 (antibody, V domains shown)
VH: B1 VH
VL: B1 VL with H34G
notes: also called VL-N34G; Kabat 28
B8: H1_L1.32 (antibody, V domains shown)
VH: B1 VH
VL: B1 VL with H34N, Q35E
notes: also called VL-Q35E; Kabat 29
B9: H1_L1.33 (antibody, V domains shown)
VH: B1 VH
VL: B1 VL with H34N, Q35H
notes: also called VL-Q35H; Kabat 29
B10: H1_L1.34 (antibody, V domains shown)
VH: B1 VH
VL: B1 VL with H34N, Q35N
notes: also called VL-Q35N; Kabat 29
B11: H1_L1.35 (antibody, V domains shown)
VH: B1 VH
VL: B1 VL with H34N, Q35K
notes: also called VL-Q35K; Kabat 29
B12: H1_L1.36 (antibody, V domains shown)
VH: B1 VH
VL: B1 VL with H34N, Q35A
notes: also called VL-Q35A; Kabat 29
B13: H1_L1.37 (antibody, V domains shown)
VH: B1 VH
VL: B1 VL with H34N, Q35F
notes: also called VL-Q35F; Kabat 29
B14: H1_L1.38 (antibody, V domains shown)
VH: B1 VH
VL: B1 VL with H34N, Q35I
notes: also called VL-Q35I; Kabat 29
B15: H1_L1.39 (antibody, V domains shown)
VH: B1 VH
VL: B1 VL with H34N, K36R
notes: also called VL-K36R; Kabat 30
B16: H1_L1.40 (antibody, V domains shown)
VH: B1 VH
VL: B1 VL with H34N, K36E
notes: also called VL-K36E; Kabat 30
B17: H1_L1.41 (antibody, V domains shown)
VH: B1 VH
VL: B1 VL with H34N, K36H
notes: also called VL-K36H; Kabat 30
B18: H1_L1.42 (antibody, V domains shown)
VH: B1 VH
VL: B1 VL with H34N, K36D
notes: also called VL-K36D; Kabat 30
B19: H1_L1.43 (antibody, V domains shown)
VH: B1 VH
VL: B1 VL with H34N, K36A
notes: also called VL-K36A; Kabat 30
B20: H1_L1.44 (antibody, V domains shown)
VH: B1 VH
VL: B1 VL with H34N, K36G
notes: also called VL-K36G; Kabat 30
B21: H1_L1.45 (antibody, human IgG1, kappa, V domains shown)
VH: B1 VH
VL: B1 VL with H34N, K36Y
notes: also called VL-K36Y; Kabat 30
B22: H1_L1.46 (antibody, V domains shown)
VH: B1 VH
VL: B1 VL with H34N, K36I
notes: also called VL-K36I; Kabat 30
B23: H1_L1.47 (antibody, V domains shown)
VH: B1 VH
VL: B1 VL with H34N, N37D
notes: also called VL-N37D; Kabat 31
B24: H1_L1.48 (antibody, V domains shown)
VH: B1 VH
VL: B1 VL with H34N, N37H
notes: also called VL-N37H; Kabat 31
B25: H1_L1.49 (antibody, V domains shown)
VH: B1 VH
VL: B1 VL with H34N, N37E
notes: also called VL-N37E; Kabat 31
B26: H1_L1.50 (antibody, V domains shown)
VH: B1 VH
VL: B1 VL with H34N, N37S
notes: also called VL-N37S; Kabat 31
B27: H1_L1.65 (antibody, V domains shown)
VH: B1 VH
VL: B1 VL with H34N, T40A
notes: also called VL-T40A; Kabat 34
B28: H1_L1.66 (antibody, V domains shown)
VH: B1 VH
VL: B1 VL with H34N, W56F
notes: also called VL-W56F; Kabat 50
B29: H1_L1.67 (antibody, V domains shown)
VH: B1 VH
VL: B1 VL with H34N, W56L
notes: also called VL-W56L; Kabat 50
B30: H1_L1.68 (antibody, V domains shown)
VH: B1 VH
VL: B1 VL with H34N, W56Y
notes: also called VL-W56Y; Kabat 50
B31: H1_L1.69 (antibody, V domains shown)
VH: B1 VH
VL: B1 VL with H34N, W56I
notes: also called VL-W56I; Kabat 50
B32: H1_L1.70 (antibody, V domains shown)
VH: B1 VH
VL: B1 VL with H34N, W56H
notes: also called VL-W56H; Kabat 50
B33: H1_L1.71 (antibody, V domains shown)
VH: B1 VH
VL: B1 VL with H34N, W56Q
notes: also called VL-W56Q; Kabat 50
B34: H1_L1.72 (antibody, V domains shown)
VH: B1 VH
VL: B1 VL with H34N, W56S
notes: also called VL-W56S; Kabat 50
B35: H1_L1.73 (antibody, V domains shown)
VH: B1 VH
VL: B1 VL with H34N, W56D
notes: also called VL-W56D; Kabat 50
B36: H1_L1.74 (antibody, V domains shown)
VH: B1 VH
VL: B1 VL with H34N, W56R
notes: also called VL-W56R; Kabat 50
B37: H1_L1.75 (antibody, V domains shown)
VH: B1 VH
VL: B1 VL with H34N, T59V
notes: also called VL-T59V; Kabat 53
B38: H1_L1.76 (antibody, V domains shown)
VH: B1 VH
VL: B1 VL with H34N, T59S
notes: also called VL-T59S; Kabat 53

Columns and labels:
human PD-1-His [1] = biological target: T1, human PD-1-His (human, UniProt Q15116 25-167, limits assumed); experiment: Octet
T1 construct: Antigen of the Octet assays; not shown: His tag
T1 sequence (Q15116 25-167 limits assumed): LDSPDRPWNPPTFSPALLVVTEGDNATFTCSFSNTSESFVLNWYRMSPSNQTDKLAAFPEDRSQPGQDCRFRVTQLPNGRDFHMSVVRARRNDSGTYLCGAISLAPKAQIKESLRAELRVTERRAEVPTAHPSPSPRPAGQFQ

human PD-1-His [2] = biological target: T1, human PD-1-His; experiment: Octet [D00120 Figure 65H]
Description: In particular, anti-human IgG-Fc (AHC) biosensors were used to capture the test articles and dipped into multiple concentrations of PD-1.

Binder	Kd (human PD-1-His [1])	koff (human PD-1-His [1])	kon (human PD-1-His [1])	Kd (human PD-1-His [2])	koff (human PD-1-His [2])	kon (human PD-1-His [2])
B1	200 nM	0.0183 s⁻¹	91600 M⁻¹ s⁻¹	–	–	–
B2	152 nM	0.0123 s⁻¹	80900 M⁻¹ s⁻¹	–	–	–
B3	177 nM	0.0229 s⁻¹	130000 M⁻¹ s⁻¹	–	–	–
B4	51.5 nM	0.0117 s⁻¹	227000 M⁻¹ s⁻¹	–	–	–
B5	403 nM	0.0539 s⁻¹	134000 M⁻¹ s⁻¹	–	–	–
B6	305 nM	0.0405 s⁻¹	133000 M⁻¹ s⁻¹	–	–	–
B7	61.9 nM	0.00901 s⁻¹	146000 M⁻¹ s⁻¹	–	–	–
B8	35 nM	0.00476 s⁻¹	136000 M⁻¹ s⁻¹	–	–	–
B9	42.7 nM	0.00566 s⁻¹	133000 M⁻¹ s⁻¹	–	–	–
B10	42.1 nM	0.00451 s⁻¹	107000 M⁻¹ s⁻¹	–	–	–
B11	57.6 nM	0.00638 s⁻¹	111000 M⁻¹ s⁻¹	–	–	–
B12	60.9 nM	0.00678 s⁻¹	111000 M⁻¹ s⁻¹	–	–	–
B13	29 nM	0.00364 s⁻¹	126000 M⁻¹ s⁻¹	–	–	–
B14	30.5 nM	0.00439 s⁻¹	144000 M⁻¹ s⁻¹	–	–	–
B15	54.5 nM	0.00596 s⁻¹	109000 M⁻¹ s⁻¹	–	–	–
B16	38.1 nM	0.00455 s⁻¹	120000 M⁻¹ s⁻¹	–	–	–
B17	39.7 nM	0.00508 s⁻¹	128000 M⁻¹ s⁻¹	–	–	–
B18	36.5 nM	0.0049 s⁻¹	134000 M⁻¹ s⁻¹	–	–	–
B19	39.8 nM	0.00546 s⁻¹	137000 M⁻¹ s⁻¹	–	–	–

Binder	Kd (human PD-1-His [1])	koff (human PD-1-His [1])	kon (human PD-1-His [1])	Kd (human PD-1-His [2])	koff (human PD-1-His [2])	kon (human PD-1-His [2])
B20	19.9 nM	0.00291 s⁻¹	146000 M⁻¹ s⁻¹	–	–	–
B21	8.6 nM	0.00135 s⁻¹	157000 M⁻¹ s⁻¹	–	–	–
B22	26.4 nM	0.00324 s⁻¹	123000 M⁻¹ s⁻¹	–	–	–
B23	23.8 nM	0.00353 s⁻¹	149000 M⁻¹ s⁻¹	–	–	–
B24	80.1 nM	0.00785 s⁻¹	98000 M⁻¹ s⁻¹	–	–	–
B25	61.1 nM	0.00697 s⁻¹	114000 M⁻¹ s⁻¹	–	–	–
B26	42.1 nM	0.00409 s⁻¹	97100 M⁻¹ s⁻¹	–	–	–
B27	–	–	–	98 nM	0.00949 s⁻¹	96800 M⁻¹ s⁻¹
B28	–	–	–	35.3 nM	0.00339 s⁻¹	96200 M⁻¹ s⁻¹
B29	–	–	–	41.6 nM	0.00418 s⁻¹	100000 M⁻¹ s⁻¹
B30	–	–	–	178 nM	0.0166 s⁻¹	92900 M⁻¹ s⁻¹
B31	–	–	–	25.9 nM	0.00244 s⁻¹	94400 M⁻¹ s⁻¹
B32	–	–	–	30.9 nM	0.00281 s⁻¹	90700 M⁻¹ s⁻¹
B33	–	–	–	47.1 nM	0.0043 s⁻¹	91400 M⁻¹ s⁻¹
B34	–	–	–	60.3 nM	0.00348 s⁻¹	57700 M⁻¹ s⁻¹
B35	–	–	–	51.6 nM	0.00455 s⁻¹	88100 M⁻¹ s⁻¹
B36	–	–	–	265 nM	0.0244 s⁻¹	92300 M⁻¹ s⁻¹
B37	–	–	–	45.3 nM	0.00496 s⁻¹	110000 M⁻¹ s⁻¹
B38	–	–	–	55 nM	0.00512 s⁻¹	93100 M⁻¹ s⁻¹
